# Data as given in paper PMC9482650, “Quantitative fragmentomics allow affinity mapping of interactomes” (Nature Communications, 2022).
# T1: APBA2_2, Q99767
# T1 sequence (Q99767 654-744, limits assumed, looked up): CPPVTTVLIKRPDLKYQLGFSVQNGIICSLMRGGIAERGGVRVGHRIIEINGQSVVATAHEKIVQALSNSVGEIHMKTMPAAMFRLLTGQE
# T2: DFNB31_2, Q9P202
# T2 sequence (Q9P202 274-371, limits assumed, looked up): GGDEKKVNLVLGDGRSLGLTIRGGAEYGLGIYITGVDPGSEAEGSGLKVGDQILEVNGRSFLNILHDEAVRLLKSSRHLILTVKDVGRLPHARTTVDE
# T3: GRIP1_7, Q9Y3R0
# T3 sequence (Q9Y3R0 999-1096, limits assumed, looked up): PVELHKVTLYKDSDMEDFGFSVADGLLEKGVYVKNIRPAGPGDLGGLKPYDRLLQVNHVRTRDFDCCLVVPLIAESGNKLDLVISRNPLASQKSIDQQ
# T4: HTRA4, P83105
# T4 sequence (P83105 378-476, limits assumed, looked up): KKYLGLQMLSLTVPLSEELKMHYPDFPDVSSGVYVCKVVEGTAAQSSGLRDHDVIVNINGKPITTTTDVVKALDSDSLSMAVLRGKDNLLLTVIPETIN
# T5: LIN7A, O14910
# T5 sequence (O14910 103-200, limits assumed, looked up): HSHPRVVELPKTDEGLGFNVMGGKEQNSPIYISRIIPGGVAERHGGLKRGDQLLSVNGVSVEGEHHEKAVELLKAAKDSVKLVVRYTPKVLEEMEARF
# T6: LNX2_2, Q8N448
# T6 sequence (Q8N448 334-432, limits assumed, looked up): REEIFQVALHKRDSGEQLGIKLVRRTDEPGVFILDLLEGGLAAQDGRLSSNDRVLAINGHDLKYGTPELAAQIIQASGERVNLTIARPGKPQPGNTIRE
# T7: MPDZ_10, O75970
# T7 sequence (O75970 1624-1722, limits assumed, looked up): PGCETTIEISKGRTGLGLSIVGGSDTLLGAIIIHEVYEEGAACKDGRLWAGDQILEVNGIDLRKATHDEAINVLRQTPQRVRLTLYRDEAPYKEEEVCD
# T8: MPP2, Q14168
# T8 sequence (Q14168 180-250, limits assumed, looked up): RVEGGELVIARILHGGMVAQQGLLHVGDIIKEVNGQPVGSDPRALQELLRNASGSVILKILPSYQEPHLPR
# T9: NHERF3_4, Q5T2W1
# T9 sequence (Q5T2W1 373-468, limits assumed, looked up): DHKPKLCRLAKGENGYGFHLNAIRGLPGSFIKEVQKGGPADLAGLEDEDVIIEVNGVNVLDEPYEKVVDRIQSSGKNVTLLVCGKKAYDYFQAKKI
# T10: PCLO, Q9Y6V0
# T10 sequence (Q9Y6V0 4491-4600, limits assumed, looked up): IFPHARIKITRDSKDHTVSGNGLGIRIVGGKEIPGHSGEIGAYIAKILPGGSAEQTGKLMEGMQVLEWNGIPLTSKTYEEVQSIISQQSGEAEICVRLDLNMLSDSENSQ
# T11: RADIL, Q96JH8
# T11 sequence (Q96JH8 971-1071, limits assumed, looked up): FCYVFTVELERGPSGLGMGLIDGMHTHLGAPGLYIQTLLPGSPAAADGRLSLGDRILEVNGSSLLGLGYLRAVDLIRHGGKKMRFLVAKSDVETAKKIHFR
# T12: TX1BP3, O14907
# T12 sequence (O14907 10-122, limits assumed, looked up): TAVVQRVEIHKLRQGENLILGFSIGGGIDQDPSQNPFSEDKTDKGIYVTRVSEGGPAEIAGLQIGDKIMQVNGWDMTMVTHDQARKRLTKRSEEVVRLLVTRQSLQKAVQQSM
# Molecular target: T1, APBA2_2, Q99767
# Assay: holdup assay
# Design: key: below the threshold = too weak to quantify, mostly under pKd 3.1 to 4
# Details: plain residues with an end cap or a label only (N-terminal biotin on a linker: ado-ado)
row,pKd,Binder
1,below the threshold,"NNMAFETTHF [SLC5A12, Q1EHB4]"
2,below the threshold,"SSSVNVSSNL [CXCR1, P25024]"

# Molecular target: ARHGEF12, Q9NZN5-2
# Assay: holdup assay
# Design: key: below the threshold = too weak to quantify, mostly under pKd 3.1 to 4
# Details: plain residues with an end cap or a label only (N-terminal biotin on a linker: ado-ado)
# Sequence of ARHGEF12, Q9NZN5-2 (Q9NZN5 other isoform, or with tags, fused parts or gaps): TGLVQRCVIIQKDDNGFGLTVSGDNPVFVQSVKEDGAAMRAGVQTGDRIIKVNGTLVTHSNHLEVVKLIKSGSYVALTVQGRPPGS
row,pKd,Binder
1,below the threshold,"NNMAFETTHF [SLC5A12, Q1EHB4]"
2,4.24,"SSSVNVSSNL [CXCR1, P25024]"

# Molecular target: T2, DFNB31_2, Q9P202
# Assay: holdup assay
# Design: key: below the threshold = too weak to quantify, mostly under pKd 3.1 to 4
# Details: plain residues with an end cap or a label only (N-terminal biotin on a linker: ado-ado)
row,pKd,Binder
1,below the threshold,"NNMAFETTHF [SLC5A12, Q1EHB4]"
2,below the threshold,"SSSVNVSSNL [CXCR1, P25024]"

# Molecular target: FRMPD2_2, Q68DX3
# Assay: holdup assay
# Design: key: below the threshold = too weak to quantify, mostly under pKd 3.1 to 4
# Details: plain residues with an end cap or a label only (N-terminal biotin on a linker: ado-ado)
# Sequence of FRMPD2_2, Q68DX3 (Q68DX3 944-1038): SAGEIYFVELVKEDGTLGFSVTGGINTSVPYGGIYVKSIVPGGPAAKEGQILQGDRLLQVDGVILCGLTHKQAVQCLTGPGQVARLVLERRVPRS
row,pKd,Binder
1,below the threshold,"NNMAFETTHF [SLC5A12, Q1EHB4]"
2,below the threshold,"SSSVNVSSNL [CXCR1, P25024]"

# Molecular target: FRMPD2_3, Q68DX3
# Assay: holdup assay
# Design: key: below the threshold = too weak to quantify, mostly under pKd 3.1 to 4
# Details: plain residues with an end cap or a label only (N-terminal biotin on a linker: ado-ado)
# Sequence of FRMPD2_3, Q68DX3 (Q68DX3 1073-1166): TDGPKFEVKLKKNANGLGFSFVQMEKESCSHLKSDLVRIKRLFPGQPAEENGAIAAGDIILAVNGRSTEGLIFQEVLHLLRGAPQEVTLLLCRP
row,pKd,Binder
1,below the threshold,"NNMAFETTHF [SLC5A12, Q1EHB4]"
2,below the threshold,"SSSVNVSSNL [CXCR1, P25024]"

# Molecular target: T3, GRIP1_7, Q9Y3R0
# Assay: holdup assay
# Design: key: below the threshold = too weak to quantify, mostly under pKd 3.1 to 4
# Details: plain residues with an end cap or a label only (N-terminal biotin on a linker: ado-ado)
row,pKd,Binder
1,below the threshold,"NNMAFETTHF [SLC5A12, Q1EHB4]"
2,below the threshold,"SSSVNVSSNL [CXCR1, P25024]"

# Molecular target: T4, HTRA4, P83105
# Assay: holdup assay
# Design: key: below the threshold = too weak to quantify, mostly under pKd 3.1 to 4
# Details: plain residues with an end cap or a label only (N-terminal biotin on a linker: ado-ado)
row,pKd,Binder
1,below the threshold,"NNMAFETTHF [SLC5A12, Q1EHB4]"
2,3.89,"SSSVNVSSNL [CXCR1, P25024]"

# Molecular target: IL16_3, Q14005
# Assay: holdup assay
# Design: key: below the threshold = too weak to quantify, mostly under pKd 3.1 to 4
# Details: plain residues with an end cap or a label only (N-terminal biotin on a linker: ado-ado)
# Sequence of IL16_3, Q14005 (Q14005 1107-1207): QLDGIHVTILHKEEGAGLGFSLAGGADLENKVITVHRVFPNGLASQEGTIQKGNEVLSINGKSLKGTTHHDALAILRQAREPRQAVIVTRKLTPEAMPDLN
row,pKd,Binder
1,below the threshold,"NNMAFETTHF [SLC5A12, Q1EHB4]"
2,below the threshold,"SSSVNVSSNL [CXCR1, P25024]"

# Molecular target: Inadl_10, Q8NI35
# Assay: holdup assay
# Design: key: below the threshold = too weak to quantify, mostly under pKd 3.1 to 4
# Details: plain residues with an end cap or a label only (N-terminal biotin on a linker: ado-ado)
# Sequence of Inadl_10, Q8NI35 (Q8NI35 1673-1763): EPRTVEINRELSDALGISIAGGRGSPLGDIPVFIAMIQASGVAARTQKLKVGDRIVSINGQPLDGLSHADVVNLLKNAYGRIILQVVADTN
row,pKd,Binder
1,below the threshold,"NNMAFETTHF [SLC5A12, Q1EHB4]"
2,below the threshold,"SSSVNVSSNL [CXCR1, P25024]"

# Molecular target: Inadl_5, Q8NI35
# Assay: holdup assay
# Design: key: below the threshold = too weak to quantify, mostly under pKd 3.1 to 4
# Details: plain residues with an end cap or a label only (N-terminal biotin on a linker: ado-ado)
# Sequence of Inadl_5, Q8NI35 (Q8NI35 673-780): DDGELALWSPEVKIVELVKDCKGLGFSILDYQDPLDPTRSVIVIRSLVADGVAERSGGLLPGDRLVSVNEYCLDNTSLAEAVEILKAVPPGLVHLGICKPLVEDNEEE
row,pKd,Binder
1,below the threshold,"NNMAFETTHF [SLC5A12, Q1EHB4]"
2,below the threshold,"SSSVNVSSNL [CXCR1, P25024]"

# Molecular target: Inadl_8, Q8NI35
# Assay: holdup assay
# Design: key: below the threshold = too weak to quantify, mostly under pKd 3.1 to 4
# Details: plain residues with an end cap or a label only (N-terminal biotin on a linker: ado-ado)
# Sequence of Inadl_8, Q8NI35 (Q8NI35 1425-1530): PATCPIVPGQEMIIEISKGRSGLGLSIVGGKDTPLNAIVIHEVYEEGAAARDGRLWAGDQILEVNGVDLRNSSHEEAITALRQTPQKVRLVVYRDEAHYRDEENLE
row,pKd,Binder
1,below the threshold,"NNMAFETTHF [SLC5A12, Q1EHB4]"
2,below the threshold,"SSSVNVSSNL [CXCR1, P25024]"

# Molecular target: Inadl_9, Q8NI35
# Assay: holdup assay
# Design: key: below the threshold = too weak to quantify, mostly under pKd 3.1 to 4
# Details: plain residues with an end cap or a label only (N-terminal biotin on a linker: ado-ado)
# Sequence of Inadl_9, Q8NI35 (Q8NI35 1530-1615): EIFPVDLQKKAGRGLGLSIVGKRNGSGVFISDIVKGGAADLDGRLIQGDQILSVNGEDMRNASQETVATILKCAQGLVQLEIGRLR
row,pKd,Binder
1,below the threshold,"NNMAFETTHF [SLC5A12, Q1EHB4]"
2,below the threshold,"SSSVNVSSNL [CXCR1, P25024]"

# Molecular target: T5, LIN7A, O14910
# Assay: holdup assay
# Design: key: below the threshold = too weak to quantify, mostly under pKd 3.1 to 4
# Details: plain residues with an end cap or a label only (N-terminal biotin on a linker: ado-ado)
row,pKd,Binder
1,3.74,"NNMAFETTHF [SLC5A12, Q1EHB4]"
2,below the threshold,"SSSVNVSSNL [CXCR1, P25024]"

# Molecular target: LNX1_3, Q8TBB1
# Assay: holdup assay
# Design: key: below the threshold = too weak to quantify, mostly under pKd 3.1 to 4
# Details: plain residues with an end cap or a label only (N-terminal biotin on a linker: ado-ado)
# Sequence of LNX1_3, Q8TBB1 (Q8TBB1 500-596): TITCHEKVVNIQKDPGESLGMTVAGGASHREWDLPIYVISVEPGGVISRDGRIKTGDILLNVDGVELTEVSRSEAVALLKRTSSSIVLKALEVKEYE
row,pKd,Binder
1,below the threshold,"NNMAFETTHF [SLC5A12, Q1EHB4]"
2,below the threshold,"SSSVNVSSNL [CXCR1, P25024]"

# Molecular target: T6, LNX2_2, Q8N448
# Assay: holdup assay
# Design: key: below the threshold = too weak to quantify, mostly under pKd 3.1 to 4
# Details: plain residues with an end cap or a label only (N-terminal biotin on a linker: ado-ado)
row,pKd,Binder
1,below the threshold,"NNMAFETTHF [SLC5A12, Q1EHB4]"
2,below the threshold,"SSSVNVSSNL [CXCR1, P25024]"

# Molecular target: MAGI1_1, Q96QZ7
# Assay: holdup assay
# Design: key: below the threshold = too weak to quantify, mostly under pKd 3.1 to 4
# Details: plain residues with an end cap or a label only (N-terminal biotin on a linker: ado-ado)
# Sequence of MAGI1_1, Q96QZ7 (Q96QZ7 1-106): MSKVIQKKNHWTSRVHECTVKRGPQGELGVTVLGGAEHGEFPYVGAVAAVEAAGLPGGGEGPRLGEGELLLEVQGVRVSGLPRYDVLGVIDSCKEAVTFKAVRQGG
row,pKd,Binder
1,below the threshold,"NNMAFETTHF [SLC5A12, Q1EHB4]"
2,below the threshold,"SSSVNVSSNL [CXCR1, P25024]"

# Molecular target: MAGI1_2, Q96QZ7
# Assay: holdup assay
# Design: key: below the threshold = too weak to quantify, mostly under pKd 3.1 to 4
# Details: plain residues with an end cap or a label only (N-terminal biotin on a linker: ado-ado)
# Sequence of MAGI1_2, Q96QZ7 (Q96QZ7 456-580): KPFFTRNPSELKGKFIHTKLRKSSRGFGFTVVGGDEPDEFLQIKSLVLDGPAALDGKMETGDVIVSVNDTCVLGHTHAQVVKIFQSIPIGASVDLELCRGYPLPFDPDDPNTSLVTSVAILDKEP
row,pKd,Binder
1,below the threshold,"NNMAFETTHF [SLC5A12, Q1EHB4]"
2,below the threshold,"SSSVNVSSNL [CXCR1, P25024]"

# Molecular target: MAGI3_2, Q5TCQ9
# Assay: holdup assay
# Design: key: below the threshold = too weak to quantify, mostly under pKd 3.1 to 4
# Details: plain residues with an end cap or a label only (N-terminal biotin on a linker: ado-ado)
# Sequence of MAGI3_2, Q5TCQ9 (Q5TCQ9 398-503): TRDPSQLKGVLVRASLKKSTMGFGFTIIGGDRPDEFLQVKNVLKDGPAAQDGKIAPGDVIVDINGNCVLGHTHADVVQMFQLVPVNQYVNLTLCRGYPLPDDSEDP
row,pKd,Binder
1,below the threshold,"NNMAFETTHF [SLC5A12, Q1EHB4]"
2,below the threshold,"SSSVNVSSNL [CXCR1, P25024]"

# Molecular target: T7, MPDZ_10, O75970
# Assay: holdup assay
# Design: key: below the threshold = too weak to quantify, mostly under pKd 3.1 to 4
# Details: plain residues with an end cap or a label only (N-terminal biotin on a linker: ado-ado)
row,pKd,Binder
1,below the threshold,"NNMAFETTHF [SLC5A12, Q1EHB4]"
2,below the threshold,"SSSVNVSSNL [CXCR1, P25024]"

# Molecular target: T8, MPP2, Q14168
# Assay: holdup assay
# Design: key: below the threshold = too weak to quantify, mostly under pKd 3.1 to 4
# Details: plain residues with an end cap or a label only (N-terminal biotin on a linker: ado-ado)
row,pKd,Binder
1,below the threshold,"NNMAFETTHF [SLC5A12, Q1EHB4]"
2,below the threshold,"SSSVNVSSNL [CXCR1, P25024]"

# Molecular target: T9, NHERF3_4, Q5T2W1
# Assay: holdup assay
# Design: key: below the threshold = too weak to quantify, mostly under pKd 3.1 to 4
# Details: plain residues with an end cap or a label only (N-terminal biotin on a linker: ado-ado)
row,pKd,Binder
1,4.57,"NNMAFETTHF [SLC5A12, Q1EHB4]"
2,below the threshold,"SSSVNVSSNL [CXCR1, P25024]"

# Molecular target: T10, PCLO, Q9Y6V0
# Assay: holdup assay
# Design: key: below the threshold = too weak to quantify, mostly under pKd 3.1 to 4
# Details: plain residues with an end cap or a label only (N-terminal biotin on a linker: ado-ado)
row,pKd,Binder
1,below the threshold,"NNMAFETTHF [SLC5A12, Q1EHB4]"
2,below the threshold,"SSSVNVSSNL [CXCR1, P25024]"

# Molecular target: T11, RADIL, Q96JH8
# Assay: holdup assay
# Design: key: below the threshold = too weak to quantify, mostly under pKd 3.1 to 4
# Details: plain residues with an end cap or a label only (N-terminal biotin on a linker: ado-ado)
row,pKd,Binder
1,below the threshold,"NNMAFETTHF [SLC5A12, Q1EHB4]"
2,below the threshold,"SSSVNVSSNL [CXCR1, P25024]"

# Molecular target: TJP1_2, Q07157
# Assay: holdup assay
# Design: key: below the threshold = too weak to quantify, mostly under pKd 3.1 to 4
# Details: plain residues with an end cap or a label only (N-terminal biotin on a linker: ado-ado)
# Sequence of TJP1_2, Q07157 (Q07157 181-274): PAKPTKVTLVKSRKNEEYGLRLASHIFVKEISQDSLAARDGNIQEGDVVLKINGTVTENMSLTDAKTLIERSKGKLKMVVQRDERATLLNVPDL
row,pKd,Binder
1,below the threshold,"NNMAFETTHF [SLC5A12, Q1EHB4]"
2,below the threshold,"SSSVNVSSNL [CXCR1, P25024]"

# Molecular target: TJP2_1, Q9UDY2
# Assay: holdup assay
# Design: key: below the threshold = too weak to quantify, mostly under pKd 3.1 to 4
# Details: plain residues with an end cap or a label only (N-terminal biotin on a linker: ado-ado)
# Sequence of TJP2_1, Q9UDY2 (Q9UDY2 24-128): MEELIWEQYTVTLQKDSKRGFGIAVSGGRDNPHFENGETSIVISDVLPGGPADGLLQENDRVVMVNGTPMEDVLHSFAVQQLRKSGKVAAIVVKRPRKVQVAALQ
row,pKd,Binder
1,below the threshold,"NNMAFETTHF [SLC5A12, Q1EHB4]"
2,below the threshold,"SSSVNVSSNL [CXCR1, P25024]"

# Molecular target: T12, TX1BP3, O14907
# Assay: holdup assay
# Design: key: below the threshold = too weak to quantify, mostly under pKd 3.1 to 4
# Details: plain residues with an end cap or a label only (N-terminal biotin on a linker: ado-ado)
row,pKd,Binder
1,3.93,"NNMAFETTHF [SLC5A12, Q1EHB4]"
2,3.84,"SSSVNVSSNL [CXCR1, P25024]"
